Measurements reported in patent US20130079280A1 (MEDLMMUNE, published 2013).
Positions count from the first letter of the chain named. Where two headings read alike, the source gives them in different places. Each block holds one binder with its values, some of them ahead of it.

Legend:
[1] = biological target: T1, human TRAIL R2-Fc fusion protein (human, UniProt O14763 54-182, limits assumed, biotinylated in the competition ELISA of Example 3); assay: competition ELISA: plate coated with F4 mod 1, human TRAIL R2-Fc, monomer as competitor
T1 construct: also called biotinylated TRAIL R2-Fc; soluble TRAIL R2-Fc; not shown: Fc part

[2] = biological target: T2, cynomolgus TRAIL R2-Fc (cynomolgus monkey (Macaca fascicularis)); assay: competition ELISA; F4 mod 1 coated plate, cyno TRAIL R2-Fc
T2 construct: the ELISAs used the Fc fusion; also called cyno TRAIL R2-Fc; cyno TRAIL-R2-Fc

[3] = biological target: T1, human TRAIL R2-Fc fusion protein; assay: competition ELISA; F4 mod 1 coated plate, human TRAIL R2-Fc
[4] = biological target: T2, cynomolgus TRAIL R2-Fc; assay: competition ELISA: plate coated with F4 mod 1, cyno TRAIL R2-Fc, monomer as competitor
[5] = biological target: T1, human TRAIL R2-Fc fusion protein; assay: competition ELISA; plate coated with A9(1C12), 0.75 nM biotinylated TRAIL R2-Fc
Experimental: Plates were blocked with PBS 0.1% Tween 20+10 mg/ml BSA. […] Absorbance was read at 450 nm.

[6] = biological target: T1, human TRAIL R2-Fc fusion protein; assay: capture ELISA: His-tagged construct captured from E. coli media on anti-His antibody, biotinylated TRAIL R2 (axis: TrailR2-Fc) titrated, streptavidin-HRP/TMB
Experimental: (§1) A 96-well MaxiSorb plate was coated with Qiagen anti-His antibody at 2 μg/ml overnight. The coated plate was blocked with PBS containing 0.1% v/v Tween-20 and 4% w/v skim milk powder (PBST 4% milk) for 1.5 hours. The coated plate was washed with PBST and diluted bacterial media (diluted 30-fold) containing soluble expressed proteins was added and plates were incubated at room temperature for 2 hours. […] The absorbance was read at 450 nm.

[7] = biological target: T3, TRAIL R2, recombinant (format not stated) (human, UniProt O14763 54-182, limits assumed, biotinylated in the ELISAs of paragraph 539 and paragraph 556); assay: capture ELISA; Tn3 captured on anti-His, biotinylated TRAIL R2
T3 construct: also called biotinylated TRAIL R2; TRAIL R2 biotin
Experimental: as §1

[8] = biological target: T4, human TRAIL R2 on the cell surface (H2122, Colo205, Jurkat and other tumor cell lines) (human, UniProt O14763 56-440); assay: cell-based or functional assay
[9] = biological target: T4, human TRAIL R2 on the cell surface …; assay: cell-based or functional assay; remark: listed apart in the source
[10] = biological target: T4, human TRAIL R2 on the cell surface …; assay: cell-based or functional assay; remark: listed apart in the source
[11] = biological target: T1, human TRAIL R2-Fc fusion protein; assay: competition ELISA: plate coated with F4 mod 1, 0.75 nM human TRAIL R2-Fc, purified monomer as competitor
[12] = biological target: T5, Human CD40L, recombinant (E. coli produced) (human, UniProt P29965 113-261, limits assumed, His-tagged (capture ELISA) or biotinylated (AlphaScreen)); assay: capture ELISA: His-tagged construct captured from E. coli media on anti-His antibody, His-tagged HuCD40L preincubated with biotinylated anti-His antibody titrated, streptavidin-HRP/TMB
T5 construct: also called HuCD40L; huCD40L
T5 sequence (looked up): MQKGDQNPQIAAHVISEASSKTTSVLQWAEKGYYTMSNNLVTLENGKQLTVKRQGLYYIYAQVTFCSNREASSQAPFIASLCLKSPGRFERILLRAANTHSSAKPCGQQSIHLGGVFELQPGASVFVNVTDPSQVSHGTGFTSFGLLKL
Experimental: as §1

[13] = biological target: T2, cynomolgus TRAIL R2-Fc; assay: competition ELISA: plate coated with F4 mod 1, 0.75 nM cyno TRAIL R2-Fc, purified monomer as competitor

IC50 [1]: 22 nM
fold difference in binding between F4 mod 1 and F4 mod 12 [2]: ≤ 2 fold
fold difference in binding among F4, F4 mod 1 and F4 mod 12 [3]: ≤ 6 fold
IC50 [4]: 50 nM
B1: F4 mod 12, germline engineered cyno cross reactive TRAIL R2-binding Tn3 monomer (designed binder)
chain: SQIEVKDVTDTTALITWAKPWVDPPPLWGCELTYGIKDVPGDRTTIGLQQKHNQYSIGNLKPDTEYEVSLICFDPYGLKSRPAKETFTTGLGTLGHHHHHHHH
notes: also called F4 mod 12 monomer

IC50 [5]: 0.5 nM
fold higher affinity relative to the monomeric A1 protein [5]: 30 to 40 fold
fold lower IC50 than the monomer A1 [5]: ≥ 30 fold
B2: A2 (1E11), bivalent linear tandem Tn3 (designed binder)
chain: SGGGGSAIEVKDVTDTTALITWAKPWVDPPPLWGCELAYGIKDVPGDRTTIDLQQKHTAYSIGNLKPDTEYEVSLICFDPYGAKSNPAKETFTTGGGGSGGGGSGGGGSAIEVKDVTDTTALITWAKPWVDPPPLWGCELAYGIKDVPGDRTTIDLQQKHTAYSIGNLKPDTEYEVSLICFDPYGAKSNPAKETFTTGGGGSGGGGSGTLGHHHHHHHH

binding result [6]: no binding (tested: 0.2 ug/ml)
binding result [7]: no binding
B3: 79, monovalent human CD40L-specific Tn3 (designed binder)
chain: IEVKDVTDTTALITWIPPHNADSSIIGCELTYGIKDVPGDRTTIDLYDVAFDYSIGNLKPDTEYEVSLICDTFYGFDSNPAKETFTTGGGTLGHHHHHHHH
notes: 8xHis-tagged, captured from E. coli media; also called 79 (79); clone 79

IC50 [5]: 0.4 nM
fold higher affinity relative to the monomeric A1 protein [5]: 30 to 40 fold
fold lower IC50 than the monomer A1 [5]: ≥ 30 fold
Maximum Inhibition %, H2122 [8]: 91%
Maximum Inhibition %, H2122 [9]: 91%
B4: A3 (1E11), tetravalent linear tandem Tn3 (designed binder)
chain: SGGGGSAIEVKDVTDTTALITWAKPWVDPPPLWGCELAYGIKDVPGDRTTIDLQQKHTAYSIGNLKPDTEYEVSLICFDPYGAKSNPAKETFTTGGGGSGGGGSGGGGSAIEVKDVTDTTALITWAKPWVDPPPLWGCELAYGIKDVPGDRTTIDLQQKHTAYSIGNLKPDTEYEVSLICFDPYGAKSNPAKETFTTGGGGSGGGGSGGGGSAIEVKDVTDTTALITWAKPWVDPPPLWGCELAYGIKDVPGDRTTIDLQQKHTAYSIGNLKPDTEYEVSLICFDPYGAKSNPAKETFTTGGGGSGGGGSGGGGSAIEVKDVTDTTALITWAKPWVDPPPLWGCELAYGIKDVPGDRTTIDLQQKHTAYSIGNLKPDTEYEVSLICFDPYGAKSNPAKETFTTGGGGSGGGGSGTLGHHHHHHHH
potency in inhibiting H2122 cell viability relative to A9 [10]: ~150 fold

IC50 [1]: 89 nM
fold difference in binding among F4, F4 mod 1 and F4 mod 12 [3]: ≤ 6 fold
IC50 [11]: 89 nM
B5: F4, TRAIL R2-binding Tn3 monomer (designed binder)
chain: AIEVKDVTDTTALITWAKPWVDPPPLWGCELAYGIKDVPGDRTTIDLQQKHTAYSIGNLKPDTEYEVSLICFDPYGLKSRPAKETFTTGGGTLGHHHHHHHH
notes: also called clone F4; original F4

IC50 [5]: 16 nM
binding result [12]: no binding (tested: 5.00E-02 ug/ml)
B6: A1 (1E11), monovalent TRAIL R2-specific Tn3 scaffold (designed binder)
chain: B5 chain with L77A, R80N
notes: His-tagged monomer expressed in E. coli; also called 1E11 monomer

IC50 [1]: 15 nM
IC50 [13]: 34 nM
fold difference in binding between F4 mod 1 and F4 mod 12 [2]: ≤ 2 fold
fold difference in binding among F4, F4 mod 1 and F4 mod 12 [3]: ≤ 6 fold
IC50 [11]: 15 nM
IC50 [4]: 34 nM
B7: F4 mod 1, cyno cross reactive TRAIL R2-binding Tn3 monomer (designed binder)
chain: B5 chain with D46G
notes: F4 with a D to G mutation two amino acids before the DE loop; also called F4 mod 1 monomer
